Data reported in article PMC4447340.

Target: Cyclophilin J (human) (UniProt Q9H2H8)
Chain of UniProt Q9H2H8 (Q9H2H8 whole entry): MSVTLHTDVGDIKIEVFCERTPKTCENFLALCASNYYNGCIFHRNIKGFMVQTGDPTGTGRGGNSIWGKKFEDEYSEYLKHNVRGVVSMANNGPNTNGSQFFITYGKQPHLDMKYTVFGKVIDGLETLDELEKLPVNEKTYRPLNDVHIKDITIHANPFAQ

inhibition of the PPIase activity of CYPJ (chymotrypsin-coupled assay, 13.1 μM CYPJ, 1-16 μM CsA): 12 µM
Substance: Cyclosporin A (peptide)
